Values quoted from earlier work in article PMC9871372.

Target: NisA precursor peptide (Lactococcus lactis) (UniProt P13068)
Chain of UniProt P13068 (P13068 24-57): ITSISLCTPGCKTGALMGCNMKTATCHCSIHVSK

NisB (from UniProt P20103)
Kd: 1050 nM
